Experimental data taken from patent US20170306033A1 (Amgen, published 2017).

Legend:
Test in all cases: cell-based or functional assay
[1] = target: T1, human PAC1 receptor (human, UniProt P41586 21-468)
T1 sequence: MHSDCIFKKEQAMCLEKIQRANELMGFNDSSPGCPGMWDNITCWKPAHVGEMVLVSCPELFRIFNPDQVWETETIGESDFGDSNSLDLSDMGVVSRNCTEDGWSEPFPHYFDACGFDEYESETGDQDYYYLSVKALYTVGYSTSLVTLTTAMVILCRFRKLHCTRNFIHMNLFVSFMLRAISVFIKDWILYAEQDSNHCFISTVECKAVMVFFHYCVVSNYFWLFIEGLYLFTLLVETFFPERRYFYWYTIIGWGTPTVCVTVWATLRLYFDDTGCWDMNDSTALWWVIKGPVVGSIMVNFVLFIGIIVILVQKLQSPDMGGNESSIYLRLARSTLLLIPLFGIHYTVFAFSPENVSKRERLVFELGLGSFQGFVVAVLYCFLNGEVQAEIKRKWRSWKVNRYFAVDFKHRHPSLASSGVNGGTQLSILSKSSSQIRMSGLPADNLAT

[2] = target: T2, human CGRP receptor (human, UniProt Q16602 23-461; O60894 27-148)
T2 sequence (Q16602 23-461 limits assumed, chain 1 of 2): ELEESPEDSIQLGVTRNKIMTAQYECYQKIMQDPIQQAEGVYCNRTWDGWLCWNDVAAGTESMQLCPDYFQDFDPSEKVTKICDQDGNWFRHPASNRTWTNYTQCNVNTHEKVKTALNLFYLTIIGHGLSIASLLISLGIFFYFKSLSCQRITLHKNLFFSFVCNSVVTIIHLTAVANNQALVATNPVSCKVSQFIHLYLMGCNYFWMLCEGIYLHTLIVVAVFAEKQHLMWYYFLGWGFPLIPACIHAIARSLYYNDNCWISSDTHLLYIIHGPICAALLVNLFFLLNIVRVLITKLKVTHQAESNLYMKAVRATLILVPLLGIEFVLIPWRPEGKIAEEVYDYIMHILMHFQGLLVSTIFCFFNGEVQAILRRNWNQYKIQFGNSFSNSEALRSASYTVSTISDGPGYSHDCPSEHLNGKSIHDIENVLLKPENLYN
T2 sequence (O60894 27-148 limits assumed, chain 2 of 2): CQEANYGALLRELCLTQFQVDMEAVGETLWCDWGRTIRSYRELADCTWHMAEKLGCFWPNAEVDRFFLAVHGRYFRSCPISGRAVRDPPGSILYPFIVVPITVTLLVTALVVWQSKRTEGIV

[3] = target: T1, human PAC1 receptor; remark: listed apart in the source
[4] = target: T2, human CGRP receptor; remark: listed apart in the source

| Binder | Human PAC1 Receptor IC50 [1] [nM] | Human CGRP Receptor IC50 [2] [nM] | % inhibition of human PAC1 [3] [%] | % inhibition of human CGRPR [4] [%] |
| --- | --- | --- | --- | --- |
| iPS:386705 (bispecific antibody, human IgG1, lambda, N297G) light: QSVLTQPPSVSAAPGQKVTISCSGSSSNIGNNYVSWYQQLPGTAPKLLIYDNNKRPSGIPDRFSGSKSGTSTTLGITGLQTGDEADYYCGTWDSRLSAVVFGGGTKLTVLGQPKANPTVTLFPPSSEELQANKATLVCLISDFYPGAVTVAWKADGSPVKAGVETTKPSKQSNNKYAASSYLSLTPEQWKSHRSYSCQVTHEGSTVEKTVAPTECS heavy: not shown | 605 | 0.43 |  |  |
| iPS:386731 (bispecific antibody, human IgG1, lambda, N297G) light: QSVLTQPPSVSAAPGQKVTISCSGSSSNIGNNYVSWYQQLPGTAPKLLIYDNNKRPSGIPDRFSGSKSGTSTTLGITGLQTGDEADYYCGTWDSRLSAVVFGGGTKLTVLGQPKANPTVTLFPPSSEELQANKATLVCLISDFYPGAVTVAWKADGSPVKAGVETTKPSKQSNNKYAASSYLSLTPEQWKSHRSYSCQVTHEGSTVEKTVAPTECS heavy: not shown | 347 | 0.4 |  |  |
| iPS:386725 (bispecific antibody, human IgG1, lambda, N297G) light: QSVLTQPPSVSAAPGQKVTISCSGSSSNIGNNYVSWYQQLPGTAPKLLIYDNNKRPSGIPDRFSGSKSGTSTTLGITGLQTGDEADYYCGTWDSRLSAVVFGGGTKLTVLGQPKANPTVTLFPPSSEELQANKATLVCLISDFYPGAVTVAWKADGSPVKAGVETTKPSKQSNNKYAASSYLSLTPEQWKSHRSYSCQVTHEGSTVEKTVAPTECS heavy: not shown | 549 | 0.42 |  |  |
| iPS:386733 (bispecific antibody, human IgG1, lambda, N297G) light: QSVLTQPPSVSAAPGQKVTISCSGSSSNIGNNYVSWYQQLPGTAPKLLIYDNNKRPSGIPDRFSGSKSGTSATLAITGLQTGDEADYYCGTWDSRLSAVVFGGGTKLTVLGQPKANPTVTLFPPSSEELQANKATLVCLISDFYPGAVTVAWKADGSPVKAGVETTKPSKQSNNKYAASSYLSLTPEQWKSHRSYSCQVTHEGSTVEKTVAPTECS heavy: not shown | 74.3 | 0.34 |  |  |
| iPS:386707 (bispecific antibody, human IgG1, lambda, N297G) light: QSVLTQPPSVSAAPGQKVTISCSGSSSNIGNNYVSWYQQLPGTAPKLLIYDNNKRPSGIPDRFSGSKSGTSTTLGITGLQTGDEADYYCGTWDSRLSAVVFGGGTKLTVLGQPKANPTVTLFPPSSEELQANKATLVCLISDFYPGAVTVAWKADGSPVKAGVETTKPSKQSNNKYAASSYLSLTPEQWKSHRSYSCQVTHEGSTVEKTVAPTECS heavy: not shown | 740 | 0.47 |  |  |
| iPS:386727 (bispecific antibody, human IgG1, lambda, N297G) light: QSVLTQPPSVSAAPGQKVTISCSGSSSNIGNNYVSWYQQLPGTAPKLLIYDNNKRPSGIPDRFSGSKSGTSATLGITGLQTGDEADYYCGTWDSRLSAVVFGGGTKLTVLGQPKANPTVTLFPPSSEELQANKATLVCLISDFYPGAVTVAWKADGSPVKAGVETTKPSKQSNNKYAASSYLSLTPEQWKSHRSYSCQVTHEGSTVEKTVAPTECS heavy: not shown | 371 | 0.72 |  |  |
| iPS:386711 (bispecific antibody, human IgG1, lambda, N297G) light: QSVLTQPPSVSAAPGQKVTISCSGSSSNIGNNYVSWYQQLPGTAPKLLIYDNNKRPSGIPDRFSGSKSGTSATLAITGLQTGDEADYYCGTWDSRLSAVVFGGGTKLTVLGQPKANPTVTLFPPSSEELQANKATLVCLISDFYPGAVTVAWKADGSPVKAGVETTKPSKQSNNKYAASSYLSLTPEQWKSHRSYSCQVTHEGSTVEKTVAPTECS heavy: not shown | 1210 | 0.53 |  |  |
| iPS:386709 (bispecific antibody, human IgG1, lambda, N297G) light: QSVLTQPPSVSAAPGQKVTISCSGSSSNIGNNYVSWYQQLPGTAPKLLIYDNNKRPSGIPDRFSGSKSGTSATLGITGLQTGDEADYYCGTWDSRLSAVVFGGGTKLTVLGQPKANPTVTLFPPSSEELQANKATLVCLISDFYPGAVTVAWKADGSPVKAGVETTKPSKQSNNKYAASSYLSLTPEQWKSHRSYSCQVTHEGSTVEKTVAPTECS heavy: not shown | 432 | 0.47 |  |  |
| iPS:386713 (bispecific antibody, human IgG1, lambda, N297G) light: QSVLTQPPSVSAAPGQKVTISCSGSSSNIGNNYVSWYQQLPGTAPKLLIYDNNKRPSGIPDRFSGSKSGTSATLGITGLQTGDEADYYCGTWDSRLSAVVFGGGTKLTVLGQPKANPTVTLFPPSSEELQANKATLVCLISDFYPGAVTVAWKADGSPVKAGVETTKPSKQSNNKYAASSYLSLTPEQWKSHRSYSCQVTHEGSTVEKTVAPTECS heavy: not shown | 603 | 0.37 |  |  |
| iPS:386729 (bispecific antibody, human IgG1, lambda, N297G) light: QSVLTQPPSVSAAPGQKVTISCSGSSSNIGNNYVSWYQQLPGTAPKLLIYDNNKRPSGIPDRFSGSKSGTSATLAITGLQTGDEADYYCGTWDSRLSAVVFGGGTKLTVLGQPKANPTVTLFPPSSEELQANKATLVCLISDFYPGAVTVAWKADGSPVKAGVETTKPSKQSNNKYAASSYLSLTPEQWKSHRSYSCQVTHEGSTVEKTVAPTECS heavy: not shown | 565 | 0.47 |  |  |
| iPS:327275 (bispecific antibody, human IgG1, kappa, lambda, N297G) light 1: EIVLTQSPATLSLSPGERATLSCRASQSVGRSLHWYQQKPGQAPRLLIKYASQSLSGIPARFSGSGSGTDFTLTISSLEPEDFAVYYCHQSSRLPFTFGEGTKVDIKRTVAAPSVFIFPPSDEQLKSGTASVVCLLNNFYPREAKVQWKVDNALQSGNSQESVTEQDSKDSTYSLESTLTLSKADYEKHKVYACEVTHQGLSSPVTKSFNRGEC heavy 1: not shown light 2: not shown heavy 2: EVQLVESGGGLVKPGGSLRLSCAASGFTFSNAWMSWVRQAPGKELEWVGRIKSKTDGGTTDYTAPVKGRFTISRDDSKNTLYLQMNSLKAEDTAVYYCTTDRTGYSISWSSYYYYYGMDVWGQGTTVTVSSASTKGPSVFPLAPSSKSTSGGTAALGCLVKDYFPEPVTVSWNSGALTSGVHTFPAVLQSSGLYSLESVVTVPSSSLGTQTYICNVNHKPSNTKVDKKVEPKSCDKTHTCPPCPAPELLGGPSVFLFPPKPKDTLMISRTPEVTCVVVDVSHEDPEVKFNWYVDGVEVHNAKTKPCEEQYGSTYRCVSVLTVLHQDWLNGKEYKCKVSNKALPAPIEKTISKAKGQPREPQVYTLPPSRKEMTKNQVSLTCLVKGFYPSDIAVEWESNGQPENNYKTTPPVLKSDGSFFLYSKLTVDKSRWQQGNVFSCSVMHEALHNHYTQKSLSLSPGK |  |  | 86 | 85 |
| iPS:386736 (bispecific antibody, human IgG1, kappa, N297G) light: DIQLTQSPSFLSASVGDRVTITCRASQSIGRSLHWYQQKPGKAPKLLIKYASQSLSGVPSRFSGSGSGTEFTLTISSLQPEDFATYYCHQSSRLPFTFGPGTKVDIKRTVAAPSVFIFPPSDEQLKSGTASVVCLLNNFYPREAKVQWKVDNALQSGNSQESVTEQDSKDSTYSLSSTLTLSKADYEKHKVYACEVTHQGLSSPVTKSFNRGEC heavy: not shown | 5.43 | 0.9 |  |  |
| iPS:386738 (bispecific antibody, human IgG1, kappa, N297G) light: DIQLTQSPSFLSASVGDRVTITCRASQSIGRSLHWYQQKPGKAPKLLIKYASQSLSGVPSRFSGSGSGTEFTLTISSLQPEDFATYYCHQSSRLPFTFGPGTKVDIKRTVAAPSVFIFPPSDEQLKSGTASVVCLLNNFYPREAKVQWKVDNALQSGNSQESVTEQDSKDSTYSLSSTLTLSKADYEKHKVYACEVTHQGLSSPVTKSFNRGEC heavy: not shown | 5.09 | 0.74 |  |  |
| iPS:327269 (bispecific antibody, human IgG1, kappa, lambda, N297G) light 1: DIQLTQSPSFLSASVGDRVTITCRASQSIGRSLHWYQQKPGKAPKLLIKYASQSLSGVPSRFSGSGSGTEFTLTISSLQPEDFATYYCHQSSRLPFTFGPGTKVDIKRTVAAPSVFIFPPSDEQLKSGTASVVCLLNNFYPREAKVQWKVDNALQSGNSQESVTEQDSKDSTYSLESTLTLSKADYEKHKVYACEVTHQGLSSPVTKSFNRGEC heavy 1: not shown light 2: not shown heavy 2: not shown |  |  | 8 | 79 |
| iPS:327274 (bispecific antibody, human IgG1, kappa, lambda, N297G) light 1: DIQLTQSPSFLSASVGDRVTITCRASQSIGRSLHWYQQKPGKAPKLLIKYASQSLSGVPSRFSGSGSGTEFTLTISSLQPEDFATYYCHQSSRLPFTFGEGTKVDIKRTVAAPSVFIFPPSDEQLKSGTASVVCLLNNFYPREAKVQWKVDNALQSGNSQESVTEQDSKDSTYSLESTLTLSKADYEKHKVYACEVTHQGLSSPVTKSFNRGEC heavy 1: not shown light 2: not shown heavy 2: EVQLVESGGGLVKPGGSLRLSCAASGFTFSNAWMSWVRQAPGKELEWVGRIKSKTDGGTTDYTAPVKGRFTISRDDSKNTLYLQMNSLKAEDTAVYYCTTDRTGYSISWSSYYYYYGMDVWGQGTTVTVSSASTKGPSVFPLAPSSKSTSGGTAALGCLVKDYFPEPVTVSWNSGALTSGVHTFPAVLQSSGLYSLESVVTVPSSSLGTQTYICNVNHKPSNTKVDKKVEPKSCDKTHTCPPCPAPELLGGPSVFLFPPKPKDTLMISRTPEVTCVVVDVSHEDPEVKFNWYVDGVEVHNAKTKPCEEQYGSTYRCVSVLTVLHQDWLNGKEYKCKVSNKALPAPIEKTISKAKGQPREPQVYTLPPSRKEMTKNQVSLTCLVKGFYPSDIAVEWESNGQPENNYKTTPPVLKSDGSFFLYSKLTVDKSRWQQGNVFSCSVMHEALHNHYTQKSLSLSPGK |  |  | 22 | 87 |
| iPS:386740 (bispecific antibody, human IgG1, kappa, N297G) light: DIQLTQSPSFLSASVGDRVTITCRASQSIGRSLHWYQQKPGKAPKLLIKYASQSLSGVPSRFSGSGSGTEFTLTISSLQPEDFATYYCHQSSRLPFTFGPGTKVDIKRTVAAPSVFIFPPSDEQLKSGTASVVCLLNNFYPREAKVQWKVDNALQSGNSQESVTEQDSKDSTYSLSSTLTLSKADYEKHKVYACEVTHQGLSSPVTKSFNRGEC heavy: not shown | 4.4 | 0.56 |  |  |
